Source: patent US20090324700A1, “METHODS AND COMPOSITIONS FOR THE INHIBITION OF CATHEPSINS” (priority 2003, published 2009)

Experiments:
[1] = target: T1, human cathepsin H (Homo sapiens, UniProt P09668); assay: Protease specificity of Spi2A: cathepsin H; assay type: biochemical; conditions: protease 20 nM, Spi2A 200 nM, 1 h at 37° C; FIG. 6B
T1 construct: purchased Calbiochem or Athens Research and Technology
T1 sequence (P09668 98-335): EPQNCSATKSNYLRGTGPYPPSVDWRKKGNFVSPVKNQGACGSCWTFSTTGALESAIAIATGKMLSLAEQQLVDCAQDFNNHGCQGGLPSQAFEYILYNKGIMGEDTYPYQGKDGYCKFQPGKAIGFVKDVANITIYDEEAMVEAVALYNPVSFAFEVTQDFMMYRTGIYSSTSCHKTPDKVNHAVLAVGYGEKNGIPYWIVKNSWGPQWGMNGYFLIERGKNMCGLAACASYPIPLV
Protocol: (§1) Protease specificity of Spi2A. RelA^−/− MEFs were transduced with retrovirus encoding Spi2A with a C-terminal 3×FLAG epitope tag and Spi2A-3×FLAG purified using a method described previously (Cooley et al., 1998). Briefly, cells (3×10^9) were lysed and Spi2A-3×FLAG (75 μg) purified by batch Q-Fast Flow ion-exchange chromatography (Pharmacia Biotech) after elution at 160-220 mM NaCl followed by anti-FLAG antibody columns, performed according to manufacturer's instructions (Sigma-Aldrich). Spi2A-3×FLAG was dialysed into PBS and stored as aliquots at −80° C. until needed.
(§2) Proteases were purchases from the manufacturers (Calbiochem or Athens Research and Technology) except granzymes A and B which were purified as described (Hanna et al., 1993) and cathespin V and K, which were purified as described (Bromme et al., 1999; Linnevers et al., 1997). Proteases (20 nM) were incubated in the appropriate assay buffer with Spi2A at 200 nM (at least 10-fold excess of inhibitor to maintain pseudo-first order conditions) for 1 h at 37° C. Control samples included only the enzyme, without the inhibitor. At the end of 1 h protease activity was assayed. […] Substrate hydrolysis was measured in a fluorescence microtiter plate reader (Spectramax Gemini XS, Molecular Devices). Percentage inhibition was calculated from the residual enzyme activity compared to no Spi2A controls. […]

[2] = system: RelA^−/− MEFs; assay: Lysosome internal pH (acridine orange, flow cytometry), RelA^−/− MEFs; assay type: cell-based, mouse; conditions: TNF-α 0.2 ng/ml, CHX 0.1 μg/ml; FIG. 8
Protocol: FIG. 8. Spi2A offers partial protection of lysosomal de-acidification in […]. RelA^−/− MEFs were transduced by retrovirus encoding GFP alone or Spi2A as indicated by the percentage AO-low cells after treatment with TNF-α (0.2 ng/ml) and CHX (0.1 μg/ml). The percentage of intact lysosomes was determined by staining with AO as has been described previously (Zhao et al., 2000). Briefly, cells were incubated with AO (5 μg/ml), washed and collected for flow cytometric assessment of uptake into intact lysosomes as indicated by red fluorescence (FL3 channel).
The inhibitory reaction was too fast to be measured using our conventional spectrophotometer. […] Lysosome internal pH was measured by staining with the weak basic, lysosomotropic dye—acridine orange (AO)— and flow cytometry (Zhao et al., 2000). Increase in lysosomal pH results a corresponding decrease in AO red fluorescence and the appearance of AO-low cells. It was shown that TNF-R1 cross-linking results in the appearance of AO-low cells in Rel A^−/− MEFs transduced with control retrovirus (GFP) (Supplementary FIG. 4). […] The appearance of AO-low cells can be interpreted as lysosomal rupture, and so it is possible that Spi2A in some way protects lysosomes from damage induced by TNF-α.

[3] = target: T2, human cathepsin K (Homo sapiens, UniProt P43235); assay: Protease specificity of Spi2A: cathepsin K; assay type: biochemical; conditions: protease 20 nM, Spi2A 200 nM, 1 h at 37° C; FIG. 6B
T2 construct: made in house
T2 sequence (P43235 115-329): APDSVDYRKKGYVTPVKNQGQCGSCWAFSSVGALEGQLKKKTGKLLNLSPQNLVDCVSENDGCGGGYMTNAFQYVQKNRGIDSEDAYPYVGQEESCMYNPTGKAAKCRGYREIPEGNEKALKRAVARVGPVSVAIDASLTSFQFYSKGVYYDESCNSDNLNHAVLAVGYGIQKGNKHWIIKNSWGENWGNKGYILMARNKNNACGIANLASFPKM
Protocol: as §1, §2

[4] = target: T3, human cathepsin V (Homo sapiens, UniProt O60911); assay: Protease specificity of Spi2A: cathepsin V; assay type: biochemical; conditions: protease 20 nM, Spi2A 200 nM, 1 h at 37° C; FIG. 6B
T3 construct: made in house
Protocol: as §1, §2

[5] = system: RelA^−/− MEFs; assay: Survival assay, sphingosine, RelA^−/− MEFs; assay type: cell-based, mouse; conditions: sphingosine 10-50 μM, 2 h; FIG. 7B
Protocol: Survival Assays. Although RelA^−/− MEFs are markedly more sensitive to TNF-α compared to RelA^+/+ MEFs, low levels of CHX (0.1 μg/ml) were used in the survival assays. This was to suppress any protective activity of constitutively active non-RelA NF-κB molecules that are present in RelA^−/− MEFs (FIG. 4). Thus, RelA^−/− MEFs were treated with CHX and TNF-α (R&D) and the number of live GFP-positive adherent cells was counted by flow cytometry after 16 h, if not indicated otherwise. Live cells were defined as those that excluded propidium iodide (PI-negative) and had the appropriate size, as defined by forward and side scatter characteristics (Coligan et al., 1995). For RelA^+/+ MEFs, TNF-α-cytotoxicity was determined after 16 h with CHX (10 μg/ml), if not indicated otherwise. Cathepsin B activity was inhibited by a 1 h pre-treatment of MEFs with CA-074 Me (30 μM) (Peptide Institute). […] RelA^−/− MEFs were treated with (10-50 μM) sphingosine (Calbiochem) and the number of live GFP-positive adherent cells was counted by flow cytometry after 2 h.

[6] = system: LCMV-specific CD8 cells; conditions: mouse, in vivo

T3 sequence (O60911 114-334): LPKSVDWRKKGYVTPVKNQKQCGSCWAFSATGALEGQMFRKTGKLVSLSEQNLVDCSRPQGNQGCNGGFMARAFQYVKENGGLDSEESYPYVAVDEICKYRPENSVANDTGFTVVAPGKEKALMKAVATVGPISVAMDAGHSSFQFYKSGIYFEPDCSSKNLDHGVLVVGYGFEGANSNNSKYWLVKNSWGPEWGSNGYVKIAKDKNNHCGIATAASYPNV

B1: Spi2A: murine Spi2A polypeptide, SEQ ID NO:2; purified as C-terminal 3×FLAG protein or expressed from MIGR1 retrovirus in cells and bone-marrow chimeras (protein, listed as Mus musculus)
chain: MAGVSPAVFGCPDVTLGRNTAVREVQENVTSVDSLTLVSSNTDFAFSLYRKLVLKNPDENVVFSPFSICTALALLSLGAKSNTLKEILEGLKFNLTETPEPDIHQGFRYLLDLLSQPGNQVQISTGSALFIEKHLQILAEFKEKARALYQAEAFTADFQQPLKATKLINDYVSNHTQGKIKELISGLKESTLMVLVNYIYFKGKWKNPFDPNDTFKSEFYLDEKRSVIVSMMKTGYLTTPYFRDEELSCTVVELKYTGNASAMFILPDQGRMQQVEASLQPETLRKWKNSLKPRMIHELRLPKFSISTDYSLEHILPELGIREVFSTHADLSAITGTKDLRVSQVVHKAVLDVAEKGTEAAAATGMAGVGCCAVFDFLEIFFNRPFLMIISDTKAHIALFMAKVTNPERSTNFPNGEGASSQRLESKRLCFGDPLCLIGQ
modifications: C-terminal 3xFLAG tag
notes: purified as C-terminal 3×FLAG protein or expressed from MIGR1 retrovirus in cells and bone-marrow chimeras
Inhibition of protease by Spi2A (percentage inhibition) [1]: extended to all of the lysosomal, papain-like proteases that were examined | Appearance of AO-low cells (lysosomal de-acidification) [2]: less AO-low cells | Inhibition of protease by Spi2A (percentage inhibition) [3]: extended to all of the lysosomal, papain-like proteases that were examined | Inhibition of protease by Spi2A (percentage inhibition) [4]: extended to all of the lysosomal, papain-like proteases that were examined | Protection from death after treatment with sphingosine [5]: could protect | Anti-LCMV CD8 cells as a percentage of the total GFP^+ CD8^+ cell population in PBLs [6]: significantly elevated | Level of anti-LCMV CD8 cells during the contraction phase [6]: considerable increase | Level of anti-LCMV CD8 cells during the initial expansion phase [6]: did not increase | Level of anti-LCMV CD8 cells during the memory phase [6]: elevated level | Residual level of anti-LCMV CD8 cells (level 56 days after infection as percentage of the maximum on day 14) [6]: significantly (p<0.001) higher | Residual level of anti-LCMV CD8 cells (level after 98 days as percentage of the maximum after 14 days) [6]: significantly higher | Time for which the elevated memory-phase level was stable [6]: at least 14 weeks
